Data reported in PMC3291610, “Identification of the Neogenin-Binding Site on the Repulsive Guidance Molecule A” (PLoS ONE, 2012).

Molecular target: T1, Recombinant mouse neogenin-Fc chimera protein (mouse, UniProt P97798 37-1136)
T1 construct: neogenin, mouse, extracellular domain (ECD); No catalogue number printed; detected by an anti-IgG Fc antibody; also called neogenin-ECD-Fc; Fc-fused neogenin ECD; source: bought: R&D Systems
T1 sequence (looked up): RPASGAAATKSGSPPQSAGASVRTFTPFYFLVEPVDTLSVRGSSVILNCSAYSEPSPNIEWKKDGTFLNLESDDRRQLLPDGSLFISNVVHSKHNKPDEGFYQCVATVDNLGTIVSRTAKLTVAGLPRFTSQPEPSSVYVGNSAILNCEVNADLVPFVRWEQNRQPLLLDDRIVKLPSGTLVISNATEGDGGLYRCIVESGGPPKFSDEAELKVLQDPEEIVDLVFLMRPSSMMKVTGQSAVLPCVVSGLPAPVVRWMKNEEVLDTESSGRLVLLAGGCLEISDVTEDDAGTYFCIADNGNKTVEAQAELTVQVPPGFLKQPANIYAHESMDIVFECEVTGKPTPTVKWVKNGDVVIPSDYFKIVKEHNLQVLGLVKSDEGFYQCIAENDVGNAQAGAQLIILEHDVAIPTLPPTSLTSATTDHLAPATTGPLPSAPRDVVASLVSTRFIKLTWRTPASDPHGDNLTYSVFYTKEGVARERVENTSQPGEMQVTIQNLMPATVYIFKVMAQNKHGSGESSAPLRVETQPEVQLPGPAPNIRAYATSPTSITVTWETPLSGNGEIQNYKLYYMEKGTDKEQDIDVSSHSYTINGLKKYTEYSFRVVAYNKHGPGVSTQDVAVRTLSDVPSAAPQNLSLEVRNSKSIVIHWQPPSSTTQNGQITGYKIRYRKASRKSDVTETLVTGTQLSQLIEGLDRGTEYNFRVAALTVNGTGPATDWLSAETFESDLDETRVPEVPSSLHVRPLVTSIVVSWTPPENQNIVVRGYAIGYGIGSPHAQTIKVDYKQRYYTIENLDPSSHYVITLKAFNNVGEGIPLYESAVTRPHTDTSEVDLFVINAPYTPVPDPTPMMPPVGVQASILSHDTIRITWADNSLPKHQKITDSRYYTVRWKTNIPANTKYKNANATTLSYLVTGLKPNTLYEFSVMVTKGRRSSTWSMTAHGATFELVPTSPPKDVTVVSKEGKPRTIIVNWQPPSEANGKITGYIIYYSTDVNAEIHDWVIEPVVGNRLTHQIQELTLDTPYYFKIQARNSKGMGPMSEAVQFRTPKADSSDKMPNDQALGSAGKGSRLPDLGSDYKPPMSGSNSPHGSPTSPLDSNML
Assay: ELISA; synthetic TAT-RGMa peptides coated on the plate (5 µg/mL, 16 h, 4°C), blocked with 5% BSA/PBS; neogenin-Fc added at 1 µg/mL for 1 h; detected with anti-IgG Fc antibody and HRP secondary, A450
Conditions: both partners purified

B1: RGMa peptide 4 (aa 284-293) fused with an N-terminal TAT protein (peptide)
peptide: YGRKKRRQRRRRQVGRYLTFA
notes: The TAT-fused form was used in the ELISA; peptide 4 without TAT was used in the growth cone collapse assay; also called Pep4; source: synthetic peptide (SIGMA Life Science, Japan)
  binding result: binds
